These results are taken from the supplement of paper PMC12458215.

For the series, the system named is HEK293T. Put plainly: plasma membrane surface immunostaining intensity (anti-HA, deep receptor scanning) (arbitrary fluorescence units); higher = higher plasma membrane expression.

± gives the uncertainty stated by the source.

In the case of “MEPSATPGAQMGVPPGSREPSPVPPDYEDEFLRYLWRDYLYPKQYEWVLIAAYVAVFVVALVGNTLVCLAVWRNHHMRTVTNYFIVNLSLADVLVTAICLPASLLVDITESWLFGHALCKVIPYLQAVSVSVAVLTLSFIALDRWYAICHPLLFKSTARRARGSILGIWAVSLAIMVPQAAVMECSSVLPELANRTRLFSVCDERWADDLYPKIYHSCFFIVTYLAPLGLMAMAYFQIFRKLWGRQIPGTTSALVRNWKRPSDQLGDLEQGLSGEPQPRARAFLAEVKQMRARRKTAKMLMVVLLVFALCYLPISVLNVLKRVFGMFRQASDREAVYACFTFSHWLVYANSAANPIIYNFLSGKFREQFKAAFSCCLPGLGPCGSLKAPSPRSSASHKSLSLQSRCSISKISEHVVLTSVTTVLP [HCRTR1]”, the “plasma membrane surface immunostaining intensity” value (GPCR class: A) is 1070 ± 130.
Regarding “MLRNGSIVTEFILVGFQQSSTSTRALLFALFLALYSLTMAMNGLIIFITSWTDPKLNSPMYFFLGHLSLLDVCFITTTIPQMLIHLVVRDHIVSFVCCMTQMYFVFCVGVAECILLAFMAYDRYVAICYPLNYVPIISQKVCVRLVGTAWFFGLINGIFLEYISFREPFRRDNHIESFFCEAPIVIGLSCGDPQFSLWAIFADAIVVILSPMVLTVTSYVHILATILSKASSSGRGKTFSTCASHLTVVIFLYTSAMFSYMNPHSTHGPDKDKPFSLLYTIITPMCNPIIYSFRNKEIKEAMVRALGRTRLAQPQSV [OR10AD1]”, the “plasma membrane surface immunostaining intensity” value (GPCR class: A (Olfactory)) turned out to be 326 ± 140.
Take “MENGSYTSYFILLGLFNHTRAHQVLFMMVLSIVLTSLFGNSLMILLIHWDHRLHTPMYFLLSQLSLMDVMLVSTTVPKMAADYLTGSKAISRAGCGAQIFFLPTLGGGECFLLAAMAYDRYAAVCHPLRYPTLMSWQLCLRMNLSCWLLGAADGLLQAVATLSFPYCGAHEIDHFFCETPVLVRLACADTSVFENAMYICCVLMLLVPFSLILSSYGLILAAVLHMRSTEARKKAFATCSSHVAVVGLFYGAAIFTYMRPKSHRSTNHDKVVSAFYTMFTPLLNPLIYSVKNSEVKGALTRCMGRCVALSRE [OR2T8]”: the “plasma membrane surface immunostaining intensity” value (GPCR class: A (Olfactory)) is 132 ± 16.
Turning to “MDSTIPVLGTELTPINGREETPCYKQTLSFTGLTCIVSLVALTGNAVVLWLLGCRMRRNAVSIYILNLVAADFLFLSGHIICSPLRLINIRHPISKILSPVMTFPYFIGLSMLSAISTERCLSILWPIWYHCRRPRYLSSVMCVLLWALSLLRSILEWMFCDFLFSGANSVWCETSDFITIAWLVFLCVVLCGSSLVLLVRILCGSRKMPLTRLYVTILLTVLVFLLCGLPFGIQWALFSRIHLDWKVLFCHVHLVSIFLSALNSSANPIIYFFVGSFRQRQNRQNLKLVLQRALQDTPEVDEGGGWLPQETLELSGSRLEQ [MRGPRX3]”, the “plasma membrane surface immunostaining intensity” value (GPCR class: A) was 135 ± 14.
Turning to “MAWENQTFNSDFLLLGIFNHSPTHTFLFFLVLAIFSVAFMGNSIMVLLIYLDTQLHTPMYFLLSQLSLMDLMLICTTVPKMAFNYLSGSKSISMAGCATQIFFYISLLGSECFLLAVMSYDRYTAICHPLRYTNLMRPKICGLMTAFSWILGSTDGIIDAVATFSFSYCGSREIAHFCCDFPSLLILSCNDTSIFEEVIFICCIVMLVFPVAIIITSYARVILAVIHMGSGEGRRKAFTTCSSHLMVVGMYYGAGLFMCIQPTSHHSPMQDKMVSVFYTIVTPMLNPLIYSLRNKEVTRALMKILGKGKSGD [OR2M7]”, the “plasma membrane surface immunostaining intensity” value (GPCR class: A (Olfactory)) was 157 ± 44.
In the case of “MSNASLLTAFILMGLPHAPALDAPLFGVFLVVYVLTVLGNLLILLVIRVDSHLHTTMYYFLTNLSFIDMWFSTVTVPKLLMTLVFPSGRAISFHSCMAQLYFFHFLGGTECFLYRVMSCDRYLAISYPLRYTSMMTGRSCTLLATSTWLSGSLHSAVQAILTFHLPYCGPNWIQHYLCDAPPILKLACADTSAIETVIFVTVGIVASGCFVLIVLSYVSIVCSILRIRTSEGKHRAFQTCASHCIVVLCFFGPGLFIYLRPGSRKAVDGVVAVFYTVLTPLLNPVVYTLRNKEVKKALLKLKDKVAHSQSK [OR10G8]”, the “plasma membrane surface immunostaining intensity” value (GPCR class: A (Olfactory)) came out at 114 ± 4.5.
Same read-out and setting: to “MERTNDSTSTEFFLVGLSAHPKLQTVFFVLILWMYLMILLGNGVLISVIIFDSHLHTPMYFFLCNLSFLDVCYTSSSVPLILASFLAVKKKVSFSGCMVQMFISFAMGATECMILGTMALDRYVAICYPLRYPVIMSKGAYVAMAAGSWVTGLVDSVVQTAFAMQLPFCANNVIKHFVCEILAILKLACADISINVISMTGSNLIVLVIPLLVISISYIFIVATILRIPSTEGKHKAFSTCSAHLTVVIIFYGTIFFMYAKPESKASVDSGNEDIIEALISLFYGVMTPMLNPLIYSLRNKDVKAAVKNILCRKNFSDGK [OR13C8]” belongs 129 ± 16.
As for “MTPTDFTSPIPNMADDYGSESTSSMEDYVNFNFTDFYCEKNNVRQFASHFLPPLYWLVFIVGALGNSLVILVYWYCTRVKTMTDMFLLNLAIADLLFLVTLPFWAIAAADQWKFQTFMCKVVNSMYKMNFYSCVLLIMCISVDRYIAIAQAMRAHTWREKRLLYSKMVCFTIWVLAAALCIPEILYSQIKEESGIAICTMVYPSDESTKLKSAVLTLKVILGFFLPFVVMACCYTIIIHTLIQAKKSSKHKALKVTITVLTVFVLSQFPYNCILLVQTIDAYAMFISNCAVSTNIDICFQVTQTIAFFHSCLNPVLYVFVGERFRRDLVKTLKNLGCISQAQWVSFTRREGSLKLSSMLLETTSGALSL [CCR9]”, the “plasma membrane surface immunostaining intensity” value (GPCR class: A) came to 4060 ± 290.
In the case of “MNGDHMVLGSSVTDKKAIILVTILLLLRLVAIAGNGFITAALGVEWVLRRMLLPCDKLLVSLGASRFCLQSVVMGKTIYVFLHPMAFPYNPVLQFLAFQWDFLNAATLWSSTWLSVFYCVKIATFTHPVFFWLKHKLSGWLPWMLFSSVGLSSFTTILFFIGNHRMYQNYLRNHLQPWNVTGDSIRSYCEKFYLFPLKMITWTMPTAVFFICMILLITSLGRHRKKALLTTSGFREPSVQAHIKALLALLSFAMLFISYFLSLVFSAAGIFPPLDFKFWVWESVIYLCAAVHPIILLFSNCRLRAVLKSRRSSRCGTP [TAS2R60]”, the “plasma membrane surface immunostaining intensity” value (GPCR class: Taste) came to 137 ± 36.
“MFRQEQPLAEGSFAPMGSLQPDAGNASWNGTEAPGGGARATPYSLQVTLTLVCLAGLLMLLTVFGNVLVIIAVFTSRALKAPQNLFLVSLASADILVATLVIPFSLANEVMGYWYFGKAWCEIYLALDVLFCTSSIVHLCAISLDRYWSITQAIEYNLKRTPRRIKAIIITVWVISAVISFPPLISIEKKGGGGGPQPAEPRCEINDQKWYVISSCIGSFFAPCLIMILVYVRIYQIAKRRTRVPPSRRGPDAVAAPPGGTERRPNGLGPERSAGPGGAEAEPLPTQLNGAPGEPAPAGPRDTDALDLEESSSSDHAERPPGPRRPERGPRGKGKARASQVKPGDSLPRRGPGATGIGTPAAGPGEERVGAAKASRWRGRQNREKRFTFVLAVVIGVFVVCWFPFFFTYTLTAVGCSVPRTLFKFFFWFGYCNSSLNPVIYTIFNHDFRRAFKKILCRGDRKRIV [ADRA2A]”: for the setting “GPCR class: A”, the “plasma membrane surface immunostaining intensity” value was found to be 2600 ± 560.
Same read-out and setting: then “MPSKSLSNLSVTTGANESGSVPEGWERDFLPASDGTTTELVIRCVIPSLYLLIITVGLLGNIMLVKIFITNSAMRSVPNIFISNLAAGDLLLLLTCVPVDASRYFFDEWMFGKVGCKLIPVIQLTSVGVSVFTLTALSADRYRAIVNPMDMQTSGALLRTCVKAMGIWVVSVLLAVPEAVFSEVARISSLDNSSFTACIPYPQTDELHPKIHSVLIFLVYFLIPLAIISIYYYHIAKTLIKSAHNLPGEYNEHTKKQMETRKRLAKIVLVFVGCFIFCWFPNHILYMYRSFNYNEIDPSLGHMIVTLVARVLSFGNSCVNPFALYLLSESFRRHFNSQLCCGRKSYQERGTSYLLSSSAVRMTSLKSNAKNMVTNSVLLNGHSMKQEMAL [NMBR]”, with 2430 ± 1200.
Turning to “MSVCYRPPGNETLLSWKTSRATGTAFLLLAALLGLPGNGFVVWSLAGWRPARGRPLAATLVLHLALADGAVLLLTPLFVAFLTRQAWPLGQAGCKAVYYVCALSMYASVLLTGLLSLQRCLAVTRPFLAPRLRSPALARRLLLAVWLAALLLAVPAAVYRHLWRDRVCQLCHPSPVHAAAHLSLETLTAFVLPFGLMLGCYSVTLARLRGARWGSGRHGARVGRLVSAIVLAFGLLWAPYHAVNLLQAVAALAPPEGALAKLGGAGQAARAGTTALAFFSSSVNPVLYVFTAGDLLPRAGPRFLTRLFEGSGEARGGGRSREGTMELRTTPQLKVVGQGRGNGDPGGGMEKDGPEWDL [LTB4R2]”, for the setting “GPCR class: A”, the “plasma membrane surface immunostaining intensity” value was 4310 ± 330.
As to “MLGLNHTSMSEFILVGFSAFPHLQLMLFLLFLLMYLFTLLGNLLIMATVWSERSLHTPMYLFLCVLSVSEILYTVAIIPRMLADLLSTQRSIAFLACASQMFFSFSFGFTHSFLLTVMGYDRYVAICHPLRYNVLMSPRGCACLVGCSWAGGSVMGMVVTSAIFQLTFCGSHEIQHFLCHVPPLLKLACGNNVPAVALGVGLVCIMALLGCFLLILLSYAFIVADILKIPSAEGRNKAFSTCASHLIVVIVHYGFASVIYLKPKGPHSQEGDTLMATTYAVLTPFLSPIIFSLRNKELKVAMKRTFLSTLYSSGT [OR10H2]”, where the note is “GPCR class: A (Olfactory)”, the “plasma membrane surface immunostaining intensity” value was 112 ± 22.
“MAERNYTVVTEFFLTAFTEHLQWRVPLFLIFLSFYLATMLGNTGMILLIRGDRRLHTPMYFFLSHLSLVDICYSSAIIPQMLAVLWEHGTTISQARCAAQFFLFTFFASIDCYLLAIMAYDRYTAVCQPLLYVTIITEKARWGLVTGAYVAGFFSAFVRTVTAFTLSFCGNNEINFIFCDLPPLLKLSCGDSYTQEVVIIVFALFVMPACILVILVSYLFIIVAILQIHSAGGRAKTFSTCASHLTAVALFFGTLIFMYLRDNTGQSSEGDRVVSVLYTVVTPMLNPLIYSLRNKEVKEATRKALSKSKPARRP [OR9Q2]”: the “plasma membrane surface immunostaining intensity” value (GPCR class: A (Olfactory)) came out at 188 ± 71.
Still for that read-out and setting: then “MEGNKTWITDITLPRFQVGPALEILLCGLFSAFYTLTLLGNGVIFGIICLDCKLHTPMYFFLSHLAIVDISYASNYVPKMLTNLMNQESTISFFPCIMQTFLYLAFAHVECLILVVMSYDRYADICHPLRYNSLMSWRVCTVLAVASWVFSFLLALVPLVLILSLPFCGPHEINHFFCEILSVLKLACADTWLNQVVIFAACVFILVGPLCLVLVSYLRILAAILRIQSGEGRRKAFSTCSSHLCVVGLFFGSAIVTYMAPKSRHPEEQQKVLSLFYSLFNPMLNPLIYSLRNAEVKGALRRALRKERLT [OR2A14]”, with 121 ± 40.
For the sequence “MESSFSFGVILAVLASLIIATNTLVAVAVLLLIHKNDGVSLCFTLNLAVADTLIGVAISGLLTDQLSSPSRPTQKTLCSLRMAFVTSSAAASVLTVMLITFDRYLAIKQPFRYLKIMSGFVAGACIAGLWLVSYLIGFLPLGIPMFQQTAYKGQCSFFAVFHPHFVLTLSCVGFFPAMLLFVFFYCDMLKIASMHSQQIRKMEHAGAMAGGYRSPRTPSDFKALRTVSVLIGSFALSWTPFLITGIVQVACQECHLYLVLERYLWLLGVGNSLLNPLIYAYWQKEVRLQLYHMALGVKKVLTSFLLFLSARNCGPERPRESSCHIVTISSSEFDG [GPR119]”, the “plasma membrane surface immunostaining intensity” value (GPCR class: A) was found to be 702 ± 99.
The same measure, in the same setting: then “MKETRGYGGDAPFCTRLNHSYTGMWAPERSAEARGNLTRPPGSGEDCGSVSVAFPITMLLTGFVGNALAMLLVSRSYRRRESKRKKSFLLCIGWLALTDLVGQLLTTPVVIVVYLSKQRWEHIDPSGRLCTFFGLTMTVFGLSSLFIASAMAVERALAIRAPHWYASHMKTRATRAVLLGVWLAVLAFALLPVLGVGQYTVQWPGTWCFISTGRGGNGTSSSHNWGNLFFASAFAFLGLLALTVTFSCNLATIKALVSRCRAKATASQSSAQWGRITTETAIQLMGIMCVLSVCWSPLLIMMLKMIFNQTSVEHCKTHTEKQKECNFFLIAVRLASLNQILDPWVYLLLRKILLRKFCQIRYHTNNYASSSTSLPCQCSSTLMWSDHLER [PTGER3]”, with 684 ± 110.
